Assay results as given in patent US20150031864A1.

Molecular target: human growth hormone receptor on IM-9 cells (human) (UniProt P10912)
Test: cell-based or functional assay

Chain of UniProt P10912 (P10912 19-638): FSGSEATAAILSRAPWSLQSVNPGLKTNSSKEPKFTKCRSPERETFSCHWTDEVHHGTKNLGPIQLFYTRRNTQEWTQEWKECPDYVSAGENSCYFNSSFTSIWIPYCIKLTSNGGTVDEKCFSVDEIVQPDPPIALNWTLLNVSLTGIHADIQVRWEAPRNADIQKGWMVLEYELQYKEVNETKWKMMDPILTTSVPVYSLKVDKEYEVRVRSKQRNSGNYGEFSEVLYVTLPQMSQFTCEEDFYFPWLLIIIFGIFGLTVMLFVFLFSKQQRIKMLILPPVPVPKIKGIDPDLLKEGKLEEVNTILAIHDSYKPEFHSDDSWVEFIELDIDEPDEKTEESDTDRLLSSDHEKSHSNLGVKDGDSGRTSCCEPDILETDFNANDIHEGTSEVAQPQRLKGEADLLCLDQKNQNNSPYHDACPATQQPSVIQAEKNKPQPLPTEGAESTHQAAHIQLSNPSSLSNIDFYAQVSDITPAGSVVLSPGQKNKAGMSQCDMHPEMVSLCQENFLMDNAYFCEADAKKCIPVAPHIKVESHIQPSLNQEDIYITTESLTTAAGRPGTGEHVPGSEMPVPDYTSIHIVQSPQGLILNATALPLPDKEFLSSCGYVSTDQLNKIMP

Substance | EC50 (nM) of STAT5 phosphorylation in IM-9 cells [nM]
N-6His A155pAF hGH (from UniProt P01241 27-217) (ligand) | 1.3
N-6His E88pAF hGH (from UniProt P01241 27-217) (ligand) | 0.9
N-6His F92pAF hGH (from UniProt P01241 27-217) (ligand) | 0.8
N-6His F139pAF hGH (from UniProt P01241 27-217) (ligand) | 3.3
N-6His G131pAF hGH (from UniProt P01241 27-217) (ligand) | 0.8
N-6His G136pAF hGH (from UniProt P01241 27-217) (ligand) | 1.4
N-6His K140pAF hGH (from UniProt P01241 27-217) (ligand) | 2.7
N-6His N99pAF hGH (from UniProt P01241 27-217) (ligand) | 8.5
N-6His P133pAF hGH (from UniProt P01241 27-217) (ligand) | 1
N-6His Q91pAF hGH (from UniProt P01241 27-217) (ligand) | 2
N-6His R134pAF hGH (from UniProt P01241 27-217) (ligand) | 0.9
N-6His S95pAF hGH (from UniProt P01241 27-217) (ligand) | 16.7
N-6His T135pAF hGH (from UniProt P01241 27-217) (ligand) | 0.9
N-6His Y103pAF hGH (from UniProt P01241 27-217) (ligand) | 130000
N-6His Y111pAF hGH (from UniProt P01241 27-217) (ligand) | 1
N-6His Y143pAF hGH (from UniProt P01241 27-217) (ligand) | 0.8
rat GH WT (from UniProt P01244 27-216) (ligand) | > 200000
